Data set [1] concerns the target 2,5-DHP dioxygenase Hpo from Pseudomonas putida S16 (non-His6-tagged) (Pseudomonas putida S16). As to the kind of experiment: SEC + native gel or EMSA. For orientation: Mobility shift assays separate free from complexed probe on a gel.
Substrate in the data set “purified protein”: O=CNC(=O)/C=C/C(=O)O
As to the kind of experiment: purified protein. The conditions noted are these: 20 mM sodium phosphate pH 6.7, 25 °C.

Results on 2 molecules are retold here after publication PMC3831237.

Consider “2,5-DHP dioxygenase Hpo from Pseudomonas putida S16 (non-His6-tagged) (enzyme)”, for which the stoichiometry N (as a rule, the number of molecules, sites or subunits per partner or assembly) in data set [1] was 3.

B1: Nfo (Pseudomonas putida S16) (protein)
chain: MKGYNVYANGIRQHIIHFPGTGSPLLLIPGITSPAVTWGFVAERLAKYFDVHVVDVRGRGLSESGDLDYSLDAMADDLVALAQRMEGVVVLGHSMGARIAIRAARKDSQVFSRLILVDPPVSGPGRRPYPAKWSWYAESIRLAQRGCTAMEMRSYCPTWTDEQIELRAEWLHTCQYTAVKTAFDGFHTDDIHTDLAQLTLPIQLVVAGGAEVIQPDDIAEIISLAPQTTTYVVEEAGHMIPWDNLEGFITAVSNR
Turning to B1, in “purified protein”, the Km (usually the concentration of substrate that gives half-maximal velocity) came out at 5.83 ± 0.46 mM and the kcat (commonly the maximal rate divided by the concentration of active sites) was 2.4 ± 0.1 s⁻¹.
